From IntAct's records for PubMed 19176810

Each substance was assayed against fadd_human FADD (UniProt Q13158).
Sequence of UniProt Q13158 (Q13158 whole entry): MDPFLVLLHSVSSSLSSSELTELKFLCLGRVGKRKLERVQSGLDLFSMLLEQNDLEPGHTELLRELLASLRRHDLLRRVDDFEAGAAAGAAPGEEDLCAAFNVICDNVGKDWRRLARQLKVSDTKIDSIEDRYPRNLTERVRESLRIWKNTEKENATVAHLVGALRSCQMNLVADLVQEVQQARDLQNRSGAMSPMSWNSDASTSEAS

Row | effect of a mutation on the interaction | Substance
1 | increasing interaction | Leucine-rich repeat serine/threonine-protein kinase 2 (Homo sapiens), Q5S007 G2019S
2 | increasing interaction | Leucine-rich repeat serine/threonine-protein kinase 2 (Homo sapiens), Q5S007 I2020T
3 | increasing interaction | Leucine-rich repeat serine/threonine-protein kinase 2 (Homo sapiens), Q5S007 Y1699C
4 | increasing interaction | Leucine-rich repeat serine/threonine-protein kinase 2 (Homo sapiens), Q5S007 R1441C
